# Experimental data published in the supplement of paper PMC10567573.
# B1: PDS5B (parent)
# chain: ITYPPGVKEISDKISKEEMVRRLK
# Variants of: B1
# Test: protein stability index of a GFP-peptide fusion (GPS, HEK-293T) (PSI 1-6); higher = more stable
# Settings: c terminus: a fixed tail appended
# 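Further: lentivirally expressed fusions sorted by FACS into six bins by GFP to DsRed ratio, PSI derived from sequencing read proportions per bin multiplied by bin number.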
row,Variant,protein stability index
1,ITYPPGVKPISDKISKEEMVRRLK,2.75
2,ITYPPGVKRISDKISKEEMVRRLK,2.11
3,ITYPPGVKKISDKISKEEMVRRLK,3.66
4,ITYPPGVKHISDKISKEEMVRRLK,3.43
5,ITYPPGVKIISDKISKEEMVRRLK,3.15
6,ITYPPGVKWISDKISKEEMVRRLK,2.24
7,ITYPPGVKCISDKISKEEMVRRLK,3.13
8,ITYPPGVKNISDKISKEEMVRRLK,3.59
9,ITYPPGVKTISDKISKEEMVRRLK,3.15
10,ITYPPGVKYISDKISKEEMVRRLK,2.79
11,ITYHPGVKEISDKISKEEMVRRLK,3.91
12,ITYAPGVKEISDKISKEEMVRRLK,3.44
13,ITYLPGVKEISDKISKEEMVRRLK,3.16
14,ITYDPGVKEISDKISKEEMVRRLK,3.24
15,ITYCPGVKEISDKISKEEMVRRLK,2.81
16,ITYKPGVKEISDKISKEEMVRRLK,3.61
17,ITYVPGVKEISDKISKEEMVRRLK,2.97
18,ITYTPGVKEISDKISKEEMVRRLK,3.15
19,ITYRPGVKEISDKISKEEMVRRLK,3.43
20,ITYQPGVKEISDKISKEEMVRRLK,3.33
21,ITYPPGVKEISDKISEEEMVRRLK,3.87
22,ITYPPGVKEISDKISFEEMVRRLK,3
23,ITYPPGVKEISDKISIEEMVRRLK,2.85
24,ITYPPGVKEISDKISHEEMVRRLK,3.75

row,Variant,protein stability index
1,ITYPPGVKEISDKISGEEMVRRLK,2.83
2,ITYPPGVKEISDKISSEEMVRRLK,4.47
3,ITYPPGVKEISDKIDKEEMVRRLK,4.26
4,ITYPPGVKEISDKIRKEEMVRRLK,3.7
5,ITYPPGVKEISDKIQKEEMVRRLK,3.65
6,ITYPPGVKEISDKIEKEEMVRRLK,4.81
7,ITYPPGVKEISDKITKEEMVRRLK,3.66
8,ITYPPGVKEISDKICKEEMVRRLK,3.23
9,ITYPPGVKEISDKIWKEEMVRRLK,2.13
10,ITYPPGVKEIPDKISKEEMVRRLK,4.29
11,ITYPPGVKEIVDKISKEEMVRRLK,2.8
12,ITYPPGVKEIKDKISKEEMVRRLK,4.72
13,ITYPPGVKEIMDKISKEEMVRRLK,2.35
14,ITYPPGVKEIEDKISKEEMVRRLK,4.04
15,ITYPPGVKEISDKISKEEMVRREK,4.84
16,ITYPPGVKEISDKISKEEMVRRQK,4.75
17,ITYPPGVKEISDKISKEEMVRRMK,3.78
18,ITYPPGVKEISDKISKEEMVRRSK,5.11
19,ITYPPGVKEISDKISKEEMVRRTK,4.79
20,ITYPEGVKEISDKISKEEMVRRLK,4.11
21,ITYPHGVKEISDKISKEEMVRRLK,3.67
22,ITYPCGVKEISDKISKEEMVRRLK,3.62
23,ITYPQGVKEISDKISKEEMVRRLK,4.17
24,ITYPAGVKEISDKISKEEMVRRLK,4.44

row,Variant,protein stability index
1,ITYPWGVKEISDKISKEEMVRRLK,3.15
2,ITYPFGVKEISDKISKEEMVRRLK,3.79
3,ITYPPGVKEISDKISKEEMVGRLK,4.75
4,ITYPPGVKEISDKISKEEMVKRLK,3.34
5,ITYPPGVKEISDKISKEEMVQRLK,4.28
6,ITYPPGVKEISDKISKEEMVFRLK,3.85
7,ITYPPGVKEISDKISKEEMVNRLK,3.44
8,ITYPPGVKEISDKISKEEMVCRLK,3.96
9,ITYPPGVKEISDKISKEEMVWRLK,4.52
10,ITYPPGVKEISDKISKEEMVTRLK,4.63
11,ITYPPGVKEISDKISKEEMVLRLK,4.15
12,ITYPPGVKEISDKISKEEMVVRLK,4.11
13,ITYPPSVKEISDKISKEEMVRRLK,3.96
14,ITYPPEVKEISDKISKEEMVRRLK,5.04
15,ITYPPWVKEISDKISKEEMVRRLK,3.3
16,ITYPPNVKEISDKISKEEMVRRLK,3.54
17,ITYPPYVKEISDKISKEEMVRRLK,2.88
18,ITYPPVVKEISDKISKEEMVRRLK,3.27
19,ITYPPRVKEISDKISKEEMVRRLK,4
20,ITYPPHVKEISDKISKEEMVRRLK,4.18
21,ITYPPCVKEISDKISKEEMVRRLK,2.19
22,ITYPPKVKEISDKISKEEMVRRLK,4.57
23,ITYPPIVKEISDKISKEEMVRRLK,3.55
24,ITYPPDVKEISDKISKEEMVRRLK,4.43

row,Variant,protein stability index
1,ITYPPGVKEISDKISKEEMVRRLI,3.04
2,ITYPPGVKEISDKISKEEMVRRLY,2.67
3,ITYPPGVKEISDKISKEEMVRRLN,3.77
4,ITYPPGVKEISDKISKEEMVRRLT,4.13
5,ITYPPGVKEISDKISKEEMVRRLV,3.61
6,ITYPPGVKEISDKISKEEMVRRLA,3.58
7,ITYPPGVKEISDKISKEEMVRRLF,2.48
8,ITYPPGVKEISDKISKEEMVRRLH,3.85
9,ITYPPGVKEISDKISKEEMVRRLC,3.13
10,ITYPPGVKEISDKISKEEMVRRLW,2.72
11,ITYPPGVKEESDKISKEEMVRRLK,4.38
12,ITYPPGVKENSDKISKEEMVRRLK,4.68
13,ITYPPGVKEPSDKISKEEMVRRLK,4.27
14,ITYPPGVKEVSDKISKEEMVRRLK,4.62
15,ITYPPGVKEGSDKISKEEMVRRLK,4.61
16,ITYPPGVKEQSDKISKEEMVRRLK,4.36
17,ITYPPGVKEFSDKISKEEMVRRLK,4.31
18,ITYPPGVTEISDKISKEEMVRRLK,4.57
19,ITYPPGVCEISDKISKEEMVRRLK,3.31
20,ITYPPGVVEISDKISKEEMVRRLK,4.67
21,ITYPPGVPEISDKISKEEMVRRLK,3.69
22,ITYPPGVEEISDKISKEEMVRRLK,3.78
23,ITYPPGVNEISDKISKEEMVRRLK,3.83
24,ITYPPGVIEISDKISKEEMVRRLK,3.12

row,Variant,protein stability index
1,ITYPPGVREISDKISKEEMVRRLK,3.99
2,ITYPPGVKEISDHISKEEMVRRLK,3.7
3,ITYPPGVKEISDRISKEEMVRRLK,4.39
4,ITYPPGVKEISDYISKEEMVRRLK,3.38
5,ITYPPGVKEISDLISKEEMVRRLK,3.3
6,ITYPPGVKEISDDISKEEMVRRLK,4.69
7,ITYPPGVKEISDGISKEEMVRRLK,3.75
8,ITYPPGVKEISDWISKEEMVRRLK,2.84
9,ITYPPGVKEISDEISKEEMVRRLK,4.34
10,ITYPPGVKEISDCISKEEMVRRLK,2.79
11,ITYPPGVKEISDPISKEEMVRRLK,4.52
12,ITYPPGVKEISDKISKEEMSRRLK,4.83
13,ITYPPGVKEISDKISKEEMPRRLK,4.26
14,ITYPPGVKEISDKISKEEMLRRLK,3.49
15,ITYPPGVKEISDKISKEEMARRLK,3.59
16,ITYPPGVKEISDKISKEEMQRRLK,4.03
17,ITYPPGRKEISDKISKEEMVRRLK,4.5
18,ITYPPGLKEISDKISKEEMVRRLK,3.67
19,ITYPPGPKEISDKISKEEMVRRLK,3.47
20,ITYPPGMKEISDKISKEEMVRRLK,4.06
21,ITYPPGGKEISDKISKEEMVRRLK,4.01
22,ITYPPGCKEISDKISKEEMVRRLK,4
23,ITYPPGVKEISDKASKEEMVRRLK,4.5
24,ITYPPGVKEISDKVSKEEMVRRLK,4.02

row,Variant,protein stability index
1,ITYPPGVKEISDKHSKEEMVRRLK,5.35
2,ITYPPGVKEISDKMSKEEMVRRLK,4.34
3,ITYPPGVKEISDKLSKEEMVRRLK,4.08
4,ITYPPGVKEISDKWSKEEMVRRLK,3.03
5,ITYPPGVKEISDKTSKEEMVRRLK,4.08
6,ITYPPGVKEISDKRSKEEMVRRLK,4.38
7,ITYPPGVKEISDKNSKEEMVRRLK,2.93
8,ITYPPGVKEISHKISKEEMVRRLK,3.83
9,ITYPPGVKEISNKISKEEMVRRLK,4.05
10,ITYPPGVKEISVKISKEEMVRRLK,3.3
11,ITYPPGVKEISWKISKEEMVRRLK,2.85
12,ITYPPGVKEISYKISKEEMVRRLK,2.46
13,ITYPPGVKEISAKISKEEMVRRLK,2.75
14,ITYPPGVKEISCKISKEEMVRRLK,3.03
15,ITYPPGVKEISEKISKEEMVRRLK,3.57
16,ITYPPGVKEISPKISKEEMVRRLK,3.7
17,ITYPPGVKEISIKISKEEMVRRLK,3.04
18,ITYPPGVKEISRKISKEEMVRRLK,3.19
19,ITVPPGVKEISDKISKEEMVRRLK,4.44
20,ITEPPGVKEISDKISKEEMVRRLK,4.47
21,ITQPPGVKEISDKISKEEMVRRLK,4.97
22,ITHPPGVKEISDKISKEEMVRRLK,4.43
23,ITTPPGVKEISDKISKEEMVRRLK,3.14
24,ITYPPGVKEISDKISKEMMVRRLK,3.12

row,Variant,protein stability index
1,ITYPPGVKEISDKISKEIMVRRLK,2.84
2,ITYPPGVKEISDKISKEHMVRRLK,4.01
3,ITYPPGVKEISDKISKEQMVRRLK,4.15
4,ITYPPGVKEISDKISKEAMVRRLK,4.37
5,ITYPPGVKEISDKISKEPMVRRLK,3.69
6,ITYPPGVKEISDKISKEVMVRRLK,3.6
7,ITYPPGVKEISDKISKEGMVRRLK,3.86
8,ITYPPGVKEISDKISKESMVRRLK,3.21
9,ITYPPGVKEISDKISKEEMVRYLK,2.95
10,ITYPPGVKEISDKISKEEMVRDLK,4.92
11,ITYPPGVKEISDKISKEEMVRKLK,3.86
12,ITYPPGVKEISDKISKEEMVRFLK,3.85
13,ITYPPGVKEISDKISKEEMVRILK,2.71
14,ITYPPGVKEISDKISKEEMVRHLK,3.88
15,ITYPPGVKEISDKISKEEPVRRLK,4.64
16,ITYPPGVKEISDKISKEENVRRLK,4.76
17,ITYPPGVKEISDKISKEECVRRLK,4.1
18,ITYPPGVKEISDKISKEERVRRLK,4.34
19,ITYPPGVKEISDKISKEEYVRRLK,3.96
20,ITYPPGVKEISDKISKEEGVRRLK,4.29
21,ITYPPGVKEISDKISKEEHVRRLK,4.74
22,ITYPPGVKEISDKISKEEKVRRLK,4.54
23,ITYPPGVKEISDKISKEEIVRRLK,4.24
24,YTYPPGVKEISDKISKEEMVRRLK,3.78

row,Variant,protein stability index
1,LTYPPGVKEISDKISKEEMVRRLK,3.95
2,ATYPPGVKEISDKISKEEMVRRLK,5.15
3,NTYPPGVKEISDKISKEEMVRRLK,5.13
4,ETYPPGVKEISDKISKEEMVRRLK,4.74
5,WTYPPGVKEISDKISKEEMVRRLK,4.64
6,IIYPPGVKEISDKISKEEMVRRLK,2.83
7,INYPPGVKEISDKISKEEMVRRLK,3.79
8,ILYPPGVKEISDKISKEEMVRRLK,4.14
9,ISYPPGVKEISDKISKEEMVRRLK,3.72
10,IHYPPGVKEISDKISKEEMVRRLK,3.79
11,IGYPPGVKEISDKISKEEMVRRLK,4.08
12,ITYPPGVKEISDKISKPEMVRRLK,3.6
13,ITYPPGVKEISDKISKYEMVRRLK,2
14,ITYPPGVKEISDKISKTEMVRRLK,4.68
15,ITYPPGVKEISDKISKNEMVRRLK,3.75
16,ITYPPGVKEISDKISKAEMVRRLK,3.14
17,ITYPPGVKEISDKISKLEMVRRLK,2.59
18,ITYPPGVKEISDKISKMEMVRRLK,2.65
19,ITYPPGVKEISDKISKKEMVRRLK,3.82
20,ITYPPGVKEISDKISKDEMVRRLK,3.72
